Experimental data taken from patent US8361510B2, “Nanogels for cellular delivery of therapeutics” (Georgia Tech Research Corporation, priority 2008, dated 2013).
Where no end group is shown, it is not given here.

Columns and labels:
[1] = siRNA release from nanogels in PBS containing 10% fetal bovine serum; format: physicochemical; conditions: after the first 12 hours, 37° C., PBS with 10% fetal bovine serum
Experimental: [formula] The release of solutes from nanogels was performed in 10% serum to simulate physiological conditions. Release experiments were performed by dispersing 200 μL of loaded nanogels in 2.20 mL of 0.01 M phosphate buffered saline containing 10% fetal bovine serum (equilibrated at 37° C.) in 3.2 mL polycarbonate centrifuge tubes (Beckman Coulter, USA). The nanogel suspension was allowed to incubate at 37° C. while shaking. At specific time points, the tubes were centrifuged for […] at 687 000×g (at 37° C.), and an aliquot of supernatant (0.75 mL) was removed for UV-vis analysis. This volume was replaced with fresh buffer. […] The cumulative siRNA released was calculated by calculating the total moles detected in the supernatant as a function of time, as described in Equation 2.
All release studies were performed in triplicate for statistical analysis, using identical nanogel loading and release conditions.

[2] = test system: Hey cells; test: Trypan blue exclusion assay; format: cell-based
Experimental: Toxicity Studies—Trypan blue exclusion assay. Hey cells were plated onto an 8-well chamber slide (1×10^4 cells/well) and allowed to adhere overnight at 37° C. and 5% CO2. The media was removed, the wells washed with PBS, and the medium replaced. PNIPMAm nanogels, YSA-conjugated nanogels, and SCR-conjugated nanogels were added to cells and incubated for 72 h. Untreated cells were used as controls. After 72 h, the cells washed with PBS, and a 1:1 solution of trypan blue was added to each well. After 1 min, the trypan blue was removed, the cells were washed with PBS, fixed with 2% (v/v) paraformaldehyde, and air dried. Each well was then viewed via bright field microscopy to determine the number of stained (dead) versus unstained cells. Five fields were viewed for each treatment.

[3] = test system: Hey cells; test: Nanogel/siGLO uptake by confocal microscopy, Hey cells; format: cell-based; conditions: Hey cells (high EphA2), 4 h incubation, serum-containing medium
Experimental: Cell transfection using nanogels. Hey or BG-1 cells were plated onto an 8-well chamber slide (5×10^3 cells/well), and the cells allowed to adhere overnight at 37° C. in a 5% CO2 atmosphere. After washing the wells with PBS and replacing the media, siGLO-loaded/YSA-conjugated nanogels, unloaded YSA-conjugated nanogels, pNIPMAm nanogels, or siGLO only were added to wells. Cells were incubated in each case for 4 h. In experiments where preincubation of ephrin-A1 was used to initiate internalization and degradation of EphA2, ephrin-A1 was added to the media at a final concentration of the ligand of 2 μg/mL. After incubation, the cells were washed with PBS, and the medium replaced. For fixation prior to confocal imaging, the cells were incubated with 2% (v/v) paraformaldehyde for 30 min
Confocal microscopy. A Zeiss LSM510 confocal microscope was used to take cell images. Cells were incubated with nanogels for 4 h. After 4 h, the cells were washed and then fixed on the slide. […]
Following loading with siGLO, nanogels were incubated with either Hey (high EphA2 expression) or BG-1 (low EphA2 expression) cells in order to compare the levels of targeted uptake by ovarian cancer cells. Uptake of the nanogels into the cells was followed using a fluorescent tag (AFA) incorporated into the nanogel core as well as by the fluorescence of the siGLO. […]

In the case of “YSA-conjugated nanogels: core/shell pNIPMAm nanogels with YSA peptide coupled to shell amines via maleimide (EMCA) (YSAYPDSVPMMSC; also: coupled to nanogel shell amines via maleimide (EMCA))”, the “siRNA retained in the nanogels” value [1] is reported as “approximately 70%”, the “blue (dead) cells” value [2] is reported as “not observed” and the “nanogel uptake (green AFA fluorescence)” value [3] is reported as “strong green fluorescence”.
